Assay results reported in US11906524B2, “Urea biosensors and uses thereof” (Duke University, priority 2015, dated 2024).

Experiment: Urea titration of emission intensity spectra (Nanodrop3300) with ratiometric analysis, singly labeled conjugates
Type: binding
Excerpt: Determination of emission intensity spectra.
Ratiometric analysis of urea binding. […] 2
For a single urea-binding site, the fractional saturation is given by
[formula] where [L] is the ligand (urea) concentration and Kd the dissociation constant, ^trueKd for ytrue.
[formula] where ^appIλ2 and ^satIλ2 are the emission intensities of the monochromatic signal at wavelength λ2 of the ligand-free and ligand-bound protein, respectively.

[1] = mutation in the csUBP7 186C·Acrylodan conjugate

Molecule	effect of mutation on urea affinity [1]	other results
Texas Red		trueKd (urea) (fluorophore conjugated to csUBP7 186C, Q114A, fit of equation 1 to the monochromatic emission intensities, Nanodrop3300): n/b
Oregon Green		monochromatic intensity change (fluorophore conjugated to csUBP7 186C variant with Q114A, increase on urea): ~2 fold; Kd (fluorophore conjugated to csUBP7 186C, Q114A, fit of equation 1 to the monochromatic emission intensities, Nanodrop3300, read-out: trueKd (urea)): 300 µM
N211A: csUBP7 186C, 211A mutant (SEQ ID NO: 82), tested as Acrylodan conjugate (conjugate, Acrylodan conjugate; csUBP7_186C.28 (186C, 211A substitution mutant, signal peptide replaced with M and a GGSHHHHHH at C-terminus, and also comprising a C89A substitution)) MSSSESEKEKSEETIKVGILHSLSGTMSISEVSLKDAELMAIEEINNNGGVLGKKLEPIVEDGASDWPTFAEKAKKLLQKDKVAVIFGAWTSASRKAVLPVVEENNGLLFYPVQYEGLESSPNIFYMGAAPNQQIVPAVKWLFDNGKKRFYLLGSDYVFPRTANKIIKAYLKYLGGVVVGEEYTPCGHTDYSSVINKIKAAKPDVVFNTLAGDSNVAFFKQLKDAGIDANTLPVMSVSIAEEEIKGIGPEYLKGHLVTWNYFQSVDTPENKEFVEKYKKKYGEDRVTDDPIEAAYIGVYLWAKAVEKAGSTDVDKVREAAKGIEFNAPEGPVKIDGDNQHLYKTVRIGEILENGQIRELWKTNKPVKPDPYLKGYEWAQGLSEQGGSHHHHHH	nearly abolishes binding	
N211E: csUBP7 186C, 211E mutant (SEQ ID NO: 86), tested as Acrylodan conjugate (conjugate, Acrylodan conjugate; csUBP7_186C.32 (186C, 211E substitution mutant, signal peptide replaced with M and a GGSHHHHHH at C-terminus, and also comprising a C89A substitution)) MSSSESEKEKSEETIKVGILHSLSGTMSISEVSLKDAELMAIEEINNNGGVLGKKLEPIVEDGASDWPTFAEKAKKLLQKDKVAVIFGAWTSASRKAVLPVVEENNGLLFYPVQYEGLESSPNIFYMGAAPNQQIVPAVKWLFDNGKKRFYLLGSDYVFPRTANKIIKAYLKYLGGVVVGEEYTPCGHTDYSSVINKIKAAKPDVVFNTLEGDSNVAFFKQLKDAGIDANTLPVMSVSIAEEEIKGIGPEYLKGHLVTWNYFQSVDTPENKEFVEKYKKKYGEDRVTDDPIEAAYIGVYLWAKAVEKAGSTDVDKVREAAKGIEFNAPEGPVKIDGDNQHLYKTVRIGEILENGQIRELWKTNKPVKPDPYLKGYEWAQGLSEQGGSHHHHHH	weakens affinity	
Q114E: csUBP7 186C, 114E mutant (SEQ ID NO: 76), tested as Acrylodan conjugate (conjugate, Acrylodan conjugate; csUBP7_186C.22 (186C, 114E substitution mutant, signal peptide replaced with M and a GGSHHHHHH at C-terminus, and also comprising a C89A substitution)) MSSSESEKEKSEETIKVGILHSLSGTMSISEVSLKDAELMAIEEINNNGGVLGKKLEPIVEDGASDWPTFAEKAKKLLQKDKVAVIFGAWTSASRKAVLPVVEENNGLLFYPVEYEGLESSPNIFYMGAAPNQQIVPAVKWLFDNGKKRFYLLGSDYVFPRTANKIIKAYLKYLGGVVVGEEYTPCGHTDYSSVINKIKAAKPDVVFNTLNGDSNVAFFKQLKDAGIDANTLPVMSVSIAEEEIKGIGPEYLKGHLVTWNYFQSVDTPENKEFVEKYKKKYGEDRVTDDPIEAAYIGVYLWAKAVEKAGSTDVDKVREAAKGIEFNAPEGPVKIDGDNQHLYKTVRIGEILENGQIRELWKTNKPVKPDPYLKGYEWAQGLSEQGGSHHHHHH	improves binding by an order of magnitude	
V113A: csUBP7 186C, 113A mutant (SEQ ID NO: 69), tested as Acrylodan conjugate (conjugate, Acrylodan conjugate; csUBP7_186C.15 (186C, 113A substitution mutant, signal peptide replaced with M and a GGSHHHHHH at C-terminus, and also comprising a C89A substitution)) MSSSESEKEKSEETIKVGILHSLSGTMSISEVSLKDAELMAIEEINNNGGVLGKKLEPIVEDGASDWPTFAEKAKKLLQKDKVAVIFGAWTSASRKAVLPVVEENNGLLFYPAQYEGLESSPNIFYMGAAPNQQIVPAVKWLFDNGKKRFYLLGSDYVFPRTANKIIKAYLKYLGGVVVGEEYTPCGHTDYSSVINKIKAAKPDVVFNTLNGDSNVAFFKQLKDAGIDANTLPVMSVSIAEEEIKGIGPEYLKGHLVTWNYFQSVDTPENKEFVEKYKKKYGEDRVTDDPIEAAYIGVYLWAKAVEKAGSTDVDKVREAAKGIEFNAPEGPVKIDGDNQHLYKTVRIGEILENGQIRELWKTNKPVKPDPYLKGYEWAQGLSEQGGSHHHHHH	weakens binding significantly	
V113T: csUBP7 186C, 113T mutant (SEQ ID NO: 70), tested as Acrylodan conjugate (conjugate, Acrylodan conjugate; csUBP7_186C.16 (186C, 113T substitution mutant, signal peptide replaced with M and a GGSHHHHHH at C-terminus, and also comprising a C89A substitution)) MSSSESEKEKSEETIKVGILHSLSGTMSISEVSLKDAELMAIEEINNNGGVLGKKLEPIVEDGASDWPTFAEKAKKLLQKDKVAVIFGAWTSASRKAVLPVVEENNGLLFYPTQYEGLESSPNIFYMGAAPNQQIVPAVKWLFDNGKKRFYLLGSDYVFPRTANKIIKAYLKYLGGVVVGEEYTPCGHTDYSSVINKIKAAKPDVVFNTLNGDSNVAFFKQLKDAGIDANTLPVMSVSIAEEEIKGIGPEYLKGHLVTWNYFQSVDTPENKEFVEKYKKKYGEDRVTDDPIEAAYIGVYLWAKAVEKAGSTDVDKVREAAKGIEFNAPEGPVKIDGDNQHLYKTVRIGEILENGQIRELWKTNKPVKPDPYLKGYEWAQGLSEQGGSHHHHHH	only a small effect	
V113Q: csUBP7 186C, 113Q mutant (SEQ ID NO: 72), tested as Acrylodan conjugate (conjugate, Acrylodan conjugate; csUBP7_186C.18 (186C, 113Q substitution mutant, signal peptide replaced with M and a GGSHHHHHH at C-terminus, and also comprising a C89A substitution)) MSSSESEKEKSEETIKVGILHSLSGTMSISEVSLKDAELMAIEEINNNGGVLGKKLEPIVEDGASDWPTFAEKAKKLLQKDKVAVIFGAWTSASRKAVLPVVEENNGLLFYPQQYEGLESSPNIFYMGAAPNQQIVPAVKWLFDNGKKRFYLLGSDYVFPRTANKIIKAYLKYLGGVVVGEEYTPCGHTDYSSVINKIKAAKPDVVFNTLNGDSNVAFFKQLKDAGIDANTLPVMSVSIAEEEIKGIGPEYLKGHLVTWNYFQSVDTPENKEFVEKYKKKYGEDRVTDDPIEAAYIGVYLWAKAVEKAGSTDVDKVREAAKGIEFNAPEGPVKIDGDNQHLYKTVRIGEILENGQIRELWKTNKPVKPDPYLKGYEWAQGLSEQGGSHHHHHH		fold stronger affinity than either V113N or V113H [1]: 10 fold
S92A: csUBP7 186C, S92A mutant (SEQ ID NO: 65), tested as Acrylodan conjugate (conjugate, Acrylodan conjugate; csUBP7_186C.11 (186C, S92A substitution mutant, signal peptide replaced with M and a GGSHHHHHH at C-terminus, and also comprising a C89A substitution)) MSSSESEKEKSEETIKVGILHSLSGTMSISEVSLKDAELMAIEEINNNGGVLGKKLEPIVEDGASDWPTFAEKAKKLLQKDKVAVIFGAWTAASRKAVLPVVEENNGLLFYPVQYEGLESSPNIFYMGAAPNQQIVPAVKWLFDNGKKRFYLLGSDYVFPRTANKIIKAYLKYLGGVVVGEEYTPCGHTDYSSVINKIKAAKPDVVFNTLNGDSNVAFFKQLKDAGIDANTLPVMSVSIAEEEIKGIGPEYLKGHLVTWNYFQSVDTPENKEFVEKYKKKYGEDRVTDDPIEAAYIGVYLWAKAVEKAGSTDVDKVREAAKGIEFNAPEGPVKIDGDNQHLYKTVRIGEILENGQIRELWKTNKPVKPDPYLKGYEWAQGLSEQGGSHHHHHH	abolishes binding	
